This passage reports binding result and Kd results from PMC6293271, “Bactericidal/Permeability-Increasing Protein Is an Enhancer of Bacterial Lipoprotein Recognition” (Frontiers in Immunology, 2018).

What all share (conditions): both partners purified
Test [1] addresses T1, recombinant bactericidal/permeability-increasing protein (rBPI) (human, UniProt P17213 32-487, labelled with NT647 (NHS labelling kit) in the MST experiments only).
T1 construct: also called rBPI NT647
T1 sequence (looked up): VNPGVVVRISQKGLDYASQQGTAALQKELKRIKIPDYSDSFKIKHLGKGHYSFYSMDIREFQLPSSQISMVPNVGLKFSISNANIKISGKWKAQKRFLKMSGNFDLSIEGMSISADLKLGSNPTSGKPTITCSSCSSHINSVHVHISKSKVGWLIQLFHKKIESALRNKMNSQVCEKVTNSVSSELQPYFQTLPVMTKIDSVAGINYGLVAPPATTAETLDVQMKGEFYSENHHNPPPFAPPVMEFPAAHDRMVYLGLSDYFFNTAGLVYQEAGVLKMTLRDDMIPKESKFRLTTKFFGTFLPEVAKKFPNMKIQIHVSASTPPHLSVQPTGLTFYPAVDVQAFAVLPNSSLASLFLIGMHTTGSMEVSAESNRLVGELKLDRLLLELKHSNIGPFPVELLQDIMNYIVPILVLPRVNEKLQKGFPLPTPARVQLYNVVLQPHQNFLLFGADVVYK
The experiment in a line: ELISA; BPI microtiter binding assay, competition: 20 nM BPI pre-incubated 30 min with increasing lipopeptide, loaded on LPS biotin (2 μg/ml) on streptavidin plates, 1 h 37°C; 150 mM NaCl, 50 mM HEPES, 1 g/l BSA; bound BPI detected with anti-human BPI antibody.

The target in test [2] is T1, recombinant …. The experiment in a line: NanoDSF (thermal shift).
Test [3] addresses T1, recombinant …. As to the kind of experiment: MST.

Ends that are not written are not given here.

B1: PamCSK4 (peptide)
peptide: CSKKKK
modifications: not fully specified
notes: also called mono-acylated lipopeptide; source: synthetic peptide; bought: EMC Microcollections
For B1, the binding result in test [1] was “binds”.

B2: (R)-Pam2CSK4 (peptide)
peptide: CSKKKK
modifications: not fully specified (residue 1); printed as (R)-Pam2CSK4
notes: also called di-acylated lipopeptide; source: synthetic peptide; bought: EMC Microcollections
For the molecule B2, the binding result in test [2] is “binds”.

B3: (R)-Pam3CSK4 (peptide)
peptide: CSKKKK
notes: also called tri-acylated bLP; source: synthetic peptide; bought: EMC Microcollections
In the case of B3, the dissociation constant Kd in test [3] was 162 ± 23.5 nM.
